Results: article PMC8487046, “Insights into the ligand binding specificity of SREC‐II (scavenger receptor expressed by endothelial cells)” (FEBS Open Bio, 2021)

B1: SREC‐II(44‐442), extracellular domain of scavenger receptor expressed by endothelial cells II (domain or fragment)
chain: QELNPRGRNVCRAPGSQVPTCCAGWRQQGDECGIAVCEGNSTCSENEVCVRPGECRCRHGYFGANCDTKCPRQFWGPDCKELCSCHPHGQCEDVTGQCTCHARRWGARCEHACQCQHGTCHPRSGACRCEPGWWGAQCASACYCSATSRCDPQTGACLCHAGWWGRSCNNQCACNSSPCEQQSGRCQCRERTFGARCDRYCQCFRGRCHPVDGTCACEPGYRGKYCREPCPAGFYGLGCRRRCGQCKGQQPCTVAEGRCLTCEPGWNGTKCDQPCATGFYGEGCSHRCPPCRDGHACNHVTGKCTRCNAGWIGDRCETKCSNGTYGEDCAFVCADCGSGHCDFQSGRCLCSPGVHGPHCNVTCPPGLHGADCAQACSCHEDTCDPVTGACHLETNQRKGLIK
modifications: N‐terminal glutamine 44 converted to pyroglutamate; N‐glycosylated (extra mass of 11.3 kDa)
notes: SREC-II (encoded by SCARF2), extracellular moiety; 3 amino acids (Leu-Ile-Lys) between Gly442 and the 8 His residues; also called SREC‐II ectodomain; soluble SREC‐II; not shown: His8, C-terminal, kept

Legend:
[1] = molecular target: T1, complement C1q, purified human (human, UniProt P02745 23-245; P02746 28-253; P02747 29-245); experiment: SPR; C1q immobilized (18 700 RU, CM5, amine coupling; BSA as reference surface), serially diluted SREC-II(44-442) injected; TBS-Ca-P; 20 µL/min; 25 °C; global fit, 1:1 Langmuir model; apparent KD; conditions: both partners purified
T1 construct: MW used: 459 300 g/mol; source: purified human C1q, prepared as described previously [8]; copies: + +

[2] = molecular target: B1; experiment: SPR; SREC-II(44-442) immobilized (1973 RU, CM5, amine coupling), CRT injected at five increasing concentrations in single cycle kinetics mode; TBS-Ca-P; 30 µL/min; 25 °C; global fit, two-state reaction model; apparent KD; conditions: both partners purified

T1 sequence (P02745 23-245, chain 1 of 3): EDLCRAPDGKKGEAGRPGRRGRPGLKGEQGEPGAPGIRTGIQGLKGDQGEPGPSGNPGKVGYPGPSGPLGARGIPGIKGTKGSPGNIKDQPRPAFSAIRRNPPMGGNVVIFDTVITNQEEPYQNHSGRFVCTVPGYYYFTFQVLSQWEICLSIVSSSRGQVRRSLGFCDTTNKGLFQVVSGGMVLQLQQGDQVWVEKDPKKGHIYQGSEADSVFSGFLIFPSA
T1 sequence (P02746 28-253, chain 2 of 3): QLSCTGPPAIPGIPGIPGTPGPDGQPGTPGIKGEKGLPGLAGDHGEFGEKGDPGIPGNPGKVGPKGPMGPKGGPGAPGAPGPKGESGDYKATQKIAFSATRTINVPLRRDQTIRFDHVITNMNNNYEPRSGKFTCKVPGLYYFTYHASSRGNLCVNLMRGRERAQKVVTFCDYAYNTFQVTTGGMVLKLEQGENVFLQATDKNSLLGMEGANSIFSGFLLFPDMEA
T1 sequence (P02747 29-245, chain 3 of 3): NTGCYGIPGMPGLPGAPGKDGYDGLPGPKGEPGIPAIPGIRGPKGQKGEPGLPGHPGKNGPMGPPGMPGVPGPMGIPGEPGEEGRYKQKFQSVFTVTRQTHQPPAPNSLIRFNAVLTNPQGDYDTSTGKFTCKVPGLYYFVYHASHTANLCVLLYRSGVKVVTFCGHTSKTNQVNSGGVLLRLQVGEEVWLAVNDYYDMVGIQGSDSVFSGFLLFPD

| Kd [1] | koff [1] | kon [1] | Kd [2] | Binder |
| --- | --- | --- | --- | --- |
| 45 nM | 0.001 s⁻¹ | 20000 M⁻¹ s⁻¹ | – | B1 |
| – | – | – | 290 nM | recombinant human calreticulin (CRT) (natural protein, UniProt P27797 18-417, looked up, calreticulin, human; source: recombinant, produced according to published procedures [6, 9]) EPAVYFKEQFLDGDGWTSRWIESKHKSDFGKFVLSSGKFYGDEEKDKGLQTSQDARFYALSASFEPFSNKGQTLVVQFTVKHEQNIDCGGGYVKLFPNSLDQTDMHGDSEYNIMFGPDICGPGTKKVHVIFNYKGKNVLINKDIRCKDDEFTHLYTLIVRPDNTYEVKIDNSQVESGSLEDDWDFLPPKKIKDPDASKPEDWDERAKIDDPTDSKPEDWDKPEHIPDPDAKKPEDWDEEMDGEWEPPVIQNPEYKGEWKPRQIDNPDYKGTWIHPEIDNPEYSPDPSIYAYDNFGVLGLDLWQVKSGTIFDNFLITNDEAYAEEFGNETWGVTKAAEKQMKDKQDEEQRLKEEEEDKKRKEEEEAEDKEDDEDKDEDEEDEEDKEEDEEEDVPGQAKDEL |
